Experimental findings from patent EP0910659B1, “ANTIBODIES AGAINST A COMPLEX OF CD4 AND A CHEMOKINE RECEPTOR DOMAIN, AND THEIR USE AGAINST HIV INFECTIONS” (United Biomedical, Inc., priority 1996, dated 1997) are described below.

One experiment addresses T1, "B4-rsCD4" interaction (Homo sapiens, UniProt P01730).
T1 construct: purchased American Bio-Technologies, Inc. Cambridge, MA
Nature of the experiment: ELISA inhibition assay with CD4 peptides (B4). The experiment is classed as binding. As to conditions: B4 10 µg/mL, negative = enhancement; for % inhibition of "B4-rsCD4" interaction, Conc 3: peptide 16.7 µg/mL; for % inhibition of "B4-rsCD4" interaction, Conc 2: peptide 167 µg/mL; for % inhibition of "B4-rsCD4" interaction, Conc 1: peptide 1.67 mg/mL. How it is done:
(§1) ELISA Inhibition Assays. […] The preincubated sample and peptide mixture was used directly in the standard rsCD4 ELISA procedure described herein above. Percent inhibition was calculated relative to the appropriate identically diluted monoclonal antibody which was preincubated in the absence of peptide. rsCD4-induced inhibition of antibody binding in the rsCD4 ELISA was similarly measured by preincubating diluted samples, at an endpoint rsCD4 binding dilution, with the competing rsCD4 at the indicated concentration.
(§2) The signal generated at endpoint concentration (e.g. 10 µg/mL for B4 and 20 µg/mL for M2) in an rsCD4 ELISA was employed as a positive control for the competitive peptide binding studies.
Table 5 depicts per cent inhibition results obtained in the rsCD4 ELISA where designed CD4 peptides were serially diluted and individually incubated with 0.1 mL of B4 at 10 µg/mL prior to the binding of B4 to the solid phase-bound rsCD4. Peptides were employed for competitive inhibition at concentrations of 1.67 mg/mL, 167 µg/mL and 16.7 µg/mL (conc 1, conc 2, and conc 3, respectively). […] Enhancement is expressed by negative values for inhibition.
On the technique in general: In an ELISA, binding on a coated surface is turned into a signal by an enzyme label.

A further experiment addresses T2, "M2-rsCD4" interaction (Homo sapiens, UniProt P01730).
T2 construct: purchased American Bio-Technologies, Inc. Cambridge, MA
The experiment is described as follows: ELISA inhibition assay with CD4 peptides (M2). The class given is binding. As to conditions: M2 20 µg/mL, negative = enhancement; for % inhibition of "M2-rsCD4" interaction, Conc 3: peptide 16.7 µg/mL; for % inhibition of "M2-rsCD4" interaction, Conc 2: peptide 167 µg/mL; for % inhibition of "M2-rsCD4" interaction, Conc 1: peptide 1.67 mg/mL. How it is done:
as §1, §2
Table 6 depicts the per cent inhibition results obtained in the rsCD4 ELISA where designed CD4 peptides were serially diluted as in Table 5 and were individually incubated with 0.1 mL of M2 at 20 µg/mL prior to binding M2 to the solid phase-bound rsCD4.

The target in experiment [1] is CD4 on the surface of CD4-expressing cells (host cell antigen complex comprising CD4) (human). The experiment is described as follows: HPB-ALL cells pre-incubated with PBS, then gp120-FITC 1:200.
The target of experiment [2] is monoclonal antibody B4. The experiment is described as follows: competition rsCD4 ELISA, B4 10 µg/mL, peptide 167 µg/mL; negative value = enhancement.
The target in experiment [3] is monoclonal antibody B4. The experiment is described as follows: competition rsCD4 ELISA, B4 10 µg/mL, peptide 1.67 mg/mL; negative value = enhancement.
The target of experiment [4] is monoclonal antibody B4. Nature of the experiment: competition rsCD4 ELISA, B4 10 µg/mL, peptide 16.7 µg/mL; negative value = enhancement.
For experiment [5], the target named is monoclonal antibody B4. Nature of the experiment: competition rsCD4 ELISA, B4 10 µg/mL, peptide 167 µg/mL.
The target of experiment [6] is monoclonal antibody B4. Nature of the experiment: competition rsCD4 ELISA, B4 10 µg/mL, peptide 1.67 mg/mL.
In experiment [7] the target is monoclonal antibody B4. Nature of the experiment: competition rsCD4 ELISA, B4 10 µg/mL, peptide 16.7 µg/mL.
Experiment [8] concerns the target gp120 of HIV-1 primary field isolate DH-12 (clade B). The experiment is described as follows: cell-based or functional assay.
Experiment [9] addresses gp120 of HIV-1 primary isolate 23135 (clade B). Nature of the experiment: cell-based or functional assay.
For experiment [10], the target named is gp120 of HIV-1 primary isolate BR014 (clade B). Nature of the experiment: cell-based or functional assay.
Experiment [11] deals with monoclonal antibody B4. Nature of the experiment: competition ELISA: soluble rsCD4 preincubated with B4 2 µg/mL; solid-phase rsCD4.
The target in experiment [12] is monoclonal antibody B4. Nature of the experiment: ELISA inhibition: soluble rsCD4 preincubated with B4 2 µg/mL; wells coated with rsCD4.
Experiment [13] addresses monoclonal antibody B4. The experiment is described as follows: competition ELISA: soluble rsCD4 5 µg/mL preincubated with B4 2 µg/mL; solid-phase rsCD4.
The target of experiment [14] is monoclonal antibody B4. The experiment is described as follows: competition ELISA: soluble rsCD4 25 µg/mL preincubated with B4 2 µg/mL; solid-phase rsCD4.
Experiment [15] addresses monoclonal antibody B4. Nature of the experiment: competition ELISA: soluble rsCD4 0.2 µg/mL preincubated with B4 2 µg/mL; solid-phase rsCD4.
The target in experiment [16] is monoclonal antibody B4. Nature of the experiment: competition ELISA: soluble rsCD4 1.0 µg/mL preincubated with B4 2 µg/mL; solid-phase rsCD4.
Experiment [17] concerns the target monoclonal antibody B4. The experiment is described as follows: competition ELISA: soluble rsCD4 0.04 µg/mL preincubated with B4 2 µg/mL; solid-phase rsCD4.
Experiment [18] addresses monoclonal antibody B4. Nature of the experiment: competition ELISA: soluble rsCD4 0.008 µg/mL preincubated with B4 2 µg/mL; solid-phase rsCD4.
The target of experiment [19] is monoclonal antibody B4. Nature of the experiment: soluble rsCD4 5 µg/mL preincubated with biotinylated B4 0.71 µg/mL, then HPB-ALL cells; no inhibition.
In experiment [20] the target is monoclonal antibody B4. Nature of the experiment: soluble rsCD4 50 µg/mL preincubated with biotinylated B4 0.71 µg/mL, then HPB-ALL cells; no inhibition.
The target of experiment [21] is monoclonal antibody B4. The experiment is described as follows: soluble rsCD4 0.5 µg/mL preincubated with biotinylated B4 0.71 µg/mL, then HPB-ALL cells; no inhibition.
Experiment [22] deals with monoclonal antibody B4. The experiment is described as follows: soluble rsCD4 0.05 µg/mL preincubated with biotinylated B4 0.71 µg/mL, then HPB-ALL cells; no inhibition.
Experiment [23] addresses monoclonal antibody B4. The experiment is described as follows: soluble rsCD4 0.005 µg/mL preincubated with biotinylated B4 0.71 µg/mL, then HPB-ALL cells; no inhibition.
Experiment [24] addresses monoclonal antibody B4. Nature of the experiment: ELISA inhibition: soluble rsCD4 preincubated with B4 0.1 µg/mL; wells coated with rsCD4/CC-CKR5-D3 (p2047a).

Take CD4 (1-20) [1816d]: on "B4-rsCD4" interaction, the “% inhibition of "B4-rsCD4" interaction, Conc 3” value was 29%; the “% inhibition of "B4-rsCD4" interaction, Conc 2” value is 53%; the “% inhibition of "B4-rsCD4" interaction, Conc 1” value came out at 64%. In addition, on "M2-rsCD4" interaction, the “% inhibition of "M2-rsCD4" interaction, Conc 3” value stood at 17%; the “% inhibition of "M2-rsCD4" interaction, Conc 2” value is reported as 60%; the “% inhibition of "M2-rsCD4" interaction, Conc 1” value was found to be 74%.
On to CD4 (36-47) [1624a], for which, at "B4-rsCD4" interaction, the “% inhibition of "B4-rsCD4" interaction, Conc 3” value is recorded as -108%; the “% inhibition of "B4-rsCD4" interaction, Conc 2” value was -207%; the “% inhibition of "B4-rsCD4" interaction, Conc 1” value is listed as -215%. At "M2-rsCD4" interaction, the “% inhibition of "M2-rsCD4" interaction, Conc 3” value was -141%; the “% inhibition of "M2-rsCD4" interaction, Conc 2” value is on record as -251%; the “% inhibition of "M2-rsCD4" interaction, Conc 1” value is given as -261%.
As for CD4 (154-165) [1768a], on "B4-rsCD4" interaction, the “% inhibition of "B4-rsCD4" interaction, Conc 3” value is reported as 6%; the “% inhibition of "B4-rsCD4" interaction, Conc 2” value stood at 37%; the “% inhibition of "B4-rsCD4" interaction, Conc 1” value is on record as 82%. On "M2-rsCD4" interaction, the “% inhibition of "M2-rsCD4" interaction, Conc 3” value was 19%; the “% inhibition of "M2-rsCD4" interaction, Conc 2” value stood at 36%; the “% inhibition of "M2-rsCD4" interaction, Conc 1” value worked out at 86%.
Turning to CD4 (297-351*) [1868a], at "B4-rsCD4" interaction, the “% inhibition of "B4-rsCD4" interaction, Conc 3” value was 19%; the “% inhibition of "B4-rsCD4" interaction, Conc 2” value came out at 30%; the “% inhibition of "B4-rsCD4" interaction, Conc 1” value turned out to be 38%. Further, at "M2-rsCD4" interaction, the “% inhibition of "M2-rsCD4" interaction, Conc 3” value was 17%; the “% inhibition of "M2-rsCD4" interaction, Conc 2” value is listed as 43%; the “% inhibition of "M2-rsCD4" interaction, Conc 1” value came to 56%.
HIV-1 gp120 (ligand) displayed a % of cells stained by gp120-FITC in [1] above 90%.
In the case of “p1624a (C)CD4(36-47)(C), cyclic (peptide)”, the % inhibition of B4-rsCD4 interaction with monoclonal antibody B4 [2] was -207%; with monoclonal antibody B4 [3] it was -215%; in the experiment with monoclonal antibody B4 [4], -108%.
Turning to p1768a CD4(154-165) (peptide), the results for the % inhibition of B4-rsCD4 interaction in the experiment with monoclonal antibody B4 [5], in the experiment with monoclonal antibody B4 [6] and with monoclonal antibody B4 [7] were 37%, 82% and 6%, respectively.
As for p1768b HBVTh-GG-CD4(154-165) (peptide), the % inhibition of B4-rsCD4 interaction was found to be 44% with monoclonal antibody B4 [5], 76% with monoclonal antibody B4 [6] and 11% with monoclonal antibody B4 [7].
On the same counts, the results for p1813b HBVTh-GG-CD4(79-88) (peptide) are 69%, 93% and 32%.
The corresponding values for p1816d CD4(1-20) (peptide) are 53%, 64% and 29%.
For the substance p1868a CD4(297-351), cyclic (peptide), the % inhibition of B4-rsCD4 interaction was 30% in the experiment with monoclonal antibody B4 [5], 38% with monoclonal antibody B4 [6] and 19% with monoclonal antibody B4 [7].
On to “recombinant human monoclonal antibody IgG1 b12”, for which the HIV-1 DH-12 (chimp PBL-grown), PBMC Infection Reduction Assay in experiment [8] is 1.38 logs killed. The 50% Inhbt., HIV-1 primary isolate 23135, MT-2 Microplaque Neutralization Assay in experiment [9] worked out at 12.8 µg/mL. The 50% Inhbt., HIV-1 primary isolate BR014, MT-2 Microplaque Neutralization Assay in [10] is above 50 µg/mL.
For the substance “recombinant soluble CD4 (rsCD4) (receptor)”, the IC50 (as a rule, the midpoint of a concentration-inhibition curve) is 1 µg/mL with monoclonal antibody B4 [11], 0.72 µg/mL in the experiment with monoclonal antibody B4 [12] and 0.047 µg/mL in the experiment with monoclonal antibody B4 [24]. For the same substance, the % Inhibition (commonly the relative decrease from the control value, in per cent) is 91% with monoclonal antibody B4 [13]; 91.9% with monoclonal antibody B4 [14]; 6.7% with monoclonal antibody B4 [15]; 49.9% with monoclonal antibody B4 [16]; 6.1% with monoclonal antibody B4 [17]; -4.7% with monoclonal antibody B4 [18]. The A492 nm with monoclonal antibody B4 [13] turned out to be 0.061 A492; with monoclonal antibody B4 [14], 0.055 A492; with monoclonal antibody B4 [15], 0.633 A492; in the experiment with monoclonal antibody B4 [16], 0.34 A492; in the experiment with monoclonal antibody B4 [17] it was 0.637 A492; in the experiment with monoclonal antibody B4 [18], 0.711 A492. The % Positive cells (biotinylated B4 staining of HPB-ALL) in the experiment with monoclonal antibody B4 [19], with monoclonal antibody B4 [20], with monoclonal antibody B4 [21], with monoclonal antibody B4 [22] and in the experiment with monoclonal antibody B4 [23] was above 95% in each case. Moreover, the staining (biotinylated B4 on HPB-ALL) with monoclonal antibody B4 [19], with monoclonal antibody B4 [20], with monoclonal antibody B4 [21], with monoclonal antibody B4 [22] and with monoclonal antibody B4 [23] was 3 + throughout.
